Results: paper PMC5916898, “Global profiling of protein–DNA and protein–nucleosome binding affinities using quantitative mass spectrometry”

What was measured:
ZBTB7A = ZBTB7A (Homo sapiens, UniProt O95365); test: pulldown; 150 mM NaCl, 50 mM Tris pH 8, 0.25% NP-40, 1 mM TCEP; 4 C, 2 h; 100 ug HeLa nuclear lysate; details: protein: extract; label: 5' biotin (strand 1)
ZBTB7B = ZBTB7B (Homo sapiens, UniProt O15156); test: as above; details: protein: extract; label: 5' biotin (strand 1)
SMARCB1-WHD = SMARCB1-WHD (UniProt Q12824 1-113); test: pull-down; Pull-down: 150 mM NaCl (or LiCl), 50 mM Tris pH 8, 0.25% NP-40, 1 mM TCEP, protease inhibitors, 4 C, 2 h; EMSA with lysate in same buffer, RT 15 min; FP in PBS, 25 C; details: protein: recombinant; label: 5' biotin; G4
PHF10-DPF = molecular target: T1, PHF10-DPF (UniProt Q8WUB8 379-481); test: as above; details: protein: recombinant; tags: GST; label: 5' biotin; G4
T1 sequence: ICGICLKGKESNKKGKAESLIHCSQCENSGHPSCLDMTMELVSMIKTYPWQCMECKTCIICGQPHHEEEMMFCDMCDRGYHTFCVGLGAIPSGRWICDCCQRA

ZFHX3 = ZFHX3 (Homo sapiens, UniProt Q15911); test: pulldown; 150 mM NaCl, 50 mM Tris pH 8, 0.25% NP-40, 1 mM TCEP; 4 C, 2 h; 100 ug HeLa nuclear lysate; details: protein: extract; label: 5' biotin (strand 1)
ZNF787 = ZNF787 (Homo sapiens, UniProt Q6DD87); test: as above; details: protein: extract; label: 5' biotin (strand 1)
VEZF1 = molecular target: T2, VEZF1 (Homo sapiens, UniProt Q14119); test: as above; details: protein: extract; label: 5' biotin (strand 1)
T2 sequence: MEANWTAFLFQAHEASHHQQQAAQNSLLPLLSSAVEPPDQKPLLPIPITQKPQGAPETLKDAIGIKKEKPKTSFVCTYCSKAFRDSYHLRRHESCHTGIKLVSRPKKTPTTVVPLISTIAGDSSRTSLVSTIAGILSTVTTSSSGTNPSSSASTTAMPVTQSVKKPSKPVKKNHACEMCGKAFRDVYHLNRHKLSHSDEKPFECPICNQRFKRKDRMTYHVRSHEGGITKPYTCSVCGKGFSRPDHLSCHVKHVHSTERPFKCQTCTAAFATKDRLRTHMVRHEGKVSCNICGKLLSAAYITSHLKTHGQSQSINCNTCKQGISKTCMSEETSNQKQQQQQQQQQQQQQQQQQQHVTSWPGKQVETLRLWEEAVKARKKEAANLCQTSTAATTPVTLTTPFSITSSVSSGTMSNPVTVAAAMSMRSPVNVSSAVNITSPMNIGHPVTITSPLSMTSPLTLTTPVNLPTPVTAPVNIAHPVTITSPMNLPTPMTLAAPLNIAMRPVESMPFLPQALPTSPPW

SP1 = SP1 (Homo sapiens, UniProt P08047); test: as above; details: protein: extract; label: 5' biotin (strand 1)
GATA2 = GATA2 (Homo sapiens, UniProt P23769); test: as above; details: protein: extract; label: 5' biotin (strand 1)
RREB1 = RREB1 (Homo sapiens, UniProt Q92766); test: as above; details: protein: extract; label: 5' biotin (strand 1)
DLX3 = DLX3 (Homo sapiens, UniProt O60479); test: as above; details: protein: extract; label: 5' biotin (strand 1)
KLF16 = KLF16 (Homo sapiens, UniProt Q9BXK1); test: as above; details: protein: extract; label: 5' biotin (strand 1)
TFAP2A = TFAP2A (Homo sapiens, UniProt P05549); test: as above; details: protein: extract; label: 5' biotin (strand 1)
ELF2 = ELF2 (Homo sapiens, UniProt Q15723); test: as above; details: protein: extract; label: 5' biotin (strand 1)
SIX2 = molecular target: T3, SIX2 (Homo sapiens, UniProt Q9NPC8); test: as above; details: protein: extract; label: 5' biotin (strand 1)
T3 sequence: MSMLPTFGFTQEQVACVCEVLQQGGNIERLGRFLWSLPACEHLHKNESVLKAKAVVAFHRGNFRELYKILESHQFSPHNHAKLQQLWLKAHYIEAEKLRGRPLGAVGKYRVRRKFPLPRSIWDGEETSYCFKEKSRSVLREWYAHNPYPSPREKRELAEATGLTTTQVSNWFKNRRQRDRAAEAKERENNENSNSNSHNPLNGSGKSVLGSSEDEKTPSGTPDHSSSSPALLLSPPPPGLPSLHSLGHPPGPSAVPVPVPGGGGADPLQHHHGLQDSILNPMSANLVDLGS

TGIF1 = TGIF1 (Homo sapiens, UniProt Q15583); test: as above; details: protein: extract; label: 5' biotin (strand 1)
BBX = molecular target: T4, BBX (Homo sapiens, UniProt Q8WY36); test: as above; details: protein: extract; label: 5' biotin (strand 1)
T4 sequence: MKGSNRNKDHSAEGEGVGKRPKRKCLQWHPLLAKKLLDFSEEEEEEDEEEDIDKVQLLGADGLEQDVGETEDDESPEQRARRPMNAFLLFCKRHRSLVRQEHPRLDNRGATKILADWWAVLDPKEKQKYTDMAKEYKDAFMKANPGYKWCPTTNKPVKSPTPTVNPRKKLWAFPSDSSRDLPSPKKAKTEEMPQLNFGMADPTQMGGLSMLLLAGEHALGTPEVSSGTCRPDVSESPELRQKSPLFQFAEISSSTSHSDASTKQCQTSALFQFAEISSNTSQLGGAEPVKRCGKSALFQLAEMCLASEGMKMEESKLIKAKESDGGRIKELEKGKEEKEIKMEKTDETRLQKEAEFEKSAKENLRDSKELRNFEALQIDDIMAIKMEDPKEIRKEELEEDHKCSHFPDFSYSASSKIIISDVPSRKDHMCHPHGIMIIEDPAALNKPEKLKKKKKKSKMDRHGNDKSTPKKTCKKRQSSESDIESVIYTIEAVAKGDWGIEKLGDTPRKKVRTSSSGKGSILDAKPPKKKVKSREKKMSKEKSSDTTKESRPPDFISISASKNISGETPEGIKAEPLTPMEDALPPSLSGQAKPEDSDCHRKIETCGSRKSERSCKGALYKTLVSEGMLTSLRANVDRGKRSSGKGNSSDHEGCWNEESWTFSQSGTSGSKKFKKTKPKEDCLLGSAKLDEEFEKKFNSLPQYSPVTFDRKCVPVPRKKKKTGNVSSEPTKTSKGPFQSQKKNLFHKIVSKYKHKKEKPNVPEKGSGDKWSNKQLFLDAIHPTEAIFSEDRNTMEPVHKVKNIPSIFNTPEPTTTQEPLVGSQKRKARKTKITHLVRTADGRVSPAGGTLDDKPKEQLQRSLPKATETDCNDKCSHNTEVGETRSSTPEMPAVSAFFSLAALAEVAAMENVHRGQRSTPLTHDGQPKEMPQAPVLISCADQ

RREB1, sequence (Q92766 whole entry): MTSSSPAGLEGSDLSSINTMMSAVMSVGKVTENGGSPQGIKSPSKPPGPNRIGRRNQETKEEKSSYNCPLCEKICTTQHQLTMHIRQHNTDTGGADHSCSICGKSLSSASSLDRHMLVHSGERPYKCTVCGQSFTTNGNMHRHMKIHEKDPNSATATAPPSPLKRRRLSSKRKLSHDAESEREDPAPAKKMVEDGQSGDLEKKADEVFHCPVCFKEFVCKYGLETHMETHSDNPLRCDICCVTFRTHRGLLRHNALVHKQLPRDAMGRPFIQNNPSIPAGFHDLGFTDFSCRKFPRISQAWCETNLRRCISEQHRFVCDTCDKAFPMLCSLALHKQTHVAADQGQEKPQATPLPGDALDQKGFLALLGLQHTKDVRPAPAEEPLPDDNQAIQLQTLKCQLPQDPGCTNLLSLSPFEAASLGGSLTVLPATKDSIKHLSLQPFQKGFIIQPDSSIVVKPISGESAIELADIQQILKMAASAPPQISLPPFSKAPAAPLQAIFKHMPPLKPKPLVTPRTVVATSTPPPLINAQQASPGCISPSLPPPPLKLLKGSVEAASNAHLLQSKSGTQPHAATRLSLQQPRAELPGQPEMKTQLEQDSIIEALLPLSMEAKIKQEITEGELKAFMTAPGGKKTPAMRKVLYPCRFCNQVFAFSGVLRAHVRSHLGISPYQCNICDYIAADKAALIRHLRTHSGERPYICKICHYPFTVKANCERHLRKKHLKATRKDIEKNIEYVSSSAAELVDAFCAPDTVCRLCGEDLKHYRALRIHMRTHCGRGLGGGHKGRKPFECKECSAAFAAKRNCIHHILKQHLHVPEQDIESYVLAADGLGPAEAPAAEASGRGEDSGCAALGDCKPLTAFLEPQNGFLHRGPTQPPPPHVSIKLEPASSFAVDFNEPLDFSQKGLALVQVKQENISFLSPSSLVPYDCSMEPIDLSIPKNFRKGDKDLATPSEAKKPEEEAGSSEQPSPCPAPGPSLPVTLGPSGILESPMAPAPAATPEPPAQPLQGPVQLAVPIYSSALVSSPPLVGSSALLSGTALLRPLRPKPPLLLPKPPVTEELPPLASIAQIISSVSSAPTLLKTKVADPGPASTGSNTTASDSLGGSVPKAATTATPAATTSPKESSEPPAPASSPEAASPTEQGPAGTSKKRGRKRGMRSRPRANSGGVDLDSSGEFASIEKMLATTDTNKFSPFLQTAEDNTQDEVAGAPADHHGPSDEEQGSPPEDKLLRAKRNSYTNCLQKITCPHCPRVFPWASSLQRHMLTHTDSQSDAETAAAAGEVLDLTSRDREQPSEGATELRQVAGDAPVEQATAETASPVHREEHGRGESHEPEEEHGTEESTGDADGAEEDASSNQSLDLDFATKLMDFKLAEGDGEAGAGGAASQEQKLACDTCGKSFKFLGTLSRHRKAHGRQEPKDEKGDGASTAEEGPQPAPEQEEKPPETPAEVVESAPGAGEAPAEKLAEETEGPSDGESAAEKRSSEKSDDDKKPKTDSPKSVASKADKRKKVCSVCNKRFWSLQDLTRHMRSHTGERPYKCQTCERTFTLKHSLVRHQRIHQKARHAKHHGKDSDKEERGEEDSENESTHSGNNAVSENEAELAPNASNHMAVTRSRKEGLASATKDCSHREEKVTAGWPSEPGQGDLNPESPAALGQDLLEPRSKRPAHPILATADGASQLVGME
DLX3, sequence (O60479 whole entry): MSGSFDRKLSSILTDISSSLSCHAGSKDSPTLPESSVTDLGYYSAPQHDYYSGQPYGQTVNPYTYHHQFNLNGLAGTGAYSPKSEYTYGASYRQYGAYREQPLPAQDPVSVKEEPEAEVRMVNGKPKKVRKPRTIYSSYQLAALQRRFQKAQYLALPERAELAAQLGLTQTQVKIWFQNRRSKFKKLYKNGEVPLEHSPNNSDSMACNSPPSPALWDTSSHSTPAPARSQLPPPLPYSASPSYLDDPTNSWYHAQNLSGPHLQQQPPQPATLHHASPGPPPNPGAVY
ZBTB7B, sequence (O15156 whole entry): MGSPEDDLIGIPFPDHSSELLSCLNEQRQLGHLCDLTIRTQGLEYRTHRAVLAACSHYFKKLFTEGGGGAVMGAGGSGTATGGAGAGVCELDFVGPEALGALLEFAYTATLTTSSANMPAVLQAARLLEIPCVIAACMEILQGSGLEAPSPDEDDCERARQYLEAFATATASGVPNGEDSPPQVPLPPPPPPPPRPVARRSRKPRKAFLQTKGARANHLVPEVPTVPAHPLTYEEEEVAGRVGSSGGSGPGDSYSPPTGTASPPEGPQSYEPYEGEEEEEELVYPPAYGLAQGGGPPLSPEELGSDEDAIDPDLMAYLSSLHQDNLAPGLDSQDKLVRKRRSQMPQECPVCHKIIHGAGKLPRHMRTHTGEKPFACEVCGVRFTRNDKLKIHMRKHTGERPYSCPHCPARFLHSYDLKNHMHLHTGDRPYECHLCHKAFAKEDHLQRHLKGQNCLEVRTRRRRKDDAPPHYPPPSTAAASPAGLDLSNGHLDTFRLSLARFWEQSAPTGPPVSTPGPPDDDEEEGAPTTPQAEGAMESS
TGIF1, sequence (Q15583 whole entry): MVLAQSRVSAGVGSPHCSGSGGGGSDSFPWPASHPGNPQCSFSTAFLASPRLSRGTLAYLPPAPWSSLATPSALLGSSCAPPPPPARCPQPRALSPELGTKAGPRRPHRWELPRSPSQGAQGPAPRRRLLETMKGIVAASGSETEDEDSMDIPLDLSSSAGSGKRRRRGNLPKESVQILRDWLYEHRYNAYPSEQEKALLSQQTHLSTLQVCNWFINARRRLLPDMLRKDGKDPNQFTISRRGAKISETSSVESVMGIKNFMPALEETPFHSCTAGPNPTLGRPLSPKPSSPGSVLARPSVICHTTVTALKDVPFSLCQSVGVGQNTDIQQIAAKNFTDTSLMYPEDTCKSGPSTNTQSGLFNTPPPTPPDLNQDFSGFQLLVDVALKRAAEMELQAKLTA
ZNF787, sequence (Q6DD87 whole entry): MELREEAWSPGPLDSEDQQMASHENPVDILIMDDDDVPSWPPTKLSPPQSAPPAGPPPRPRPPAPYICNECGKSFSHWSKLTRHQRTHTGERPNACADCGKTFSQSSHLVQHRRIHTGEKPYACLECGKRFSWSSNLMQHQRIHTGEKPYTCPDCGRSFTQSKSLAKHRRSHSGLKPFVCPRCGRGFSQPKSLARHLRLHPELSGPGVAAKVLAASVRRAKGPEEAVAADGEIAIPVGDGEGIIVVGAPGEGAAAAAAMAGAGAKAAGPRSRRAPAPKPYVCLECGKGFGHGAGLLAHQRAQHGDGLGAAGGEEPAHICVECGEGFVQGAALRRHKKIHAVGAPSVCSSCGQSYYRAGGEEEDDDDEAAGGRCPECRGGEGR
GATA2, sequence (P23769 whole entry): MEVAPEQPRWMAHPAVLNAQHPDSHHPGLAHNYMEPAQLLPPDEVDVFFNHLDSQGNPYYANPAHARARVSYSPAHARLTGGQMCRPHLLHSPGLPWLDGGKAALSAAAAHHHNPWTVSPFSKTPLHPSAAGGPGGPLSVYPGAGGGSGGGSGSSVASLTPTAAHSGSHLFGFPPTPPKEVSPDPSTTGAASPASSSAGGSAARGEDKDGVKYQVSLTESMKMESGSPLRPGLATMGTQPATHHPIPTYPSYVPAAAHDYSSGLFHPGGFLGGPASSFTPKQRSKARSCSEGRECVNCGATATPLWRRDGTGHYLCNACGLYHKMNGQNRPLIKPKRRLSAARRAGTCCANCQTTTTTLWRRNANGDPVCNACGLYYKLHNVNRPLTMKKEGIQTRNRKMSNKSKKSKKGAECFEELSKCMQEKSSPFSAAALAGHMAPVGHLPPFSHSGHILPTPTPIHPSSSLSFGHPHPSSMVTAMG
TFAP2A, sequence (P05549 whole entry): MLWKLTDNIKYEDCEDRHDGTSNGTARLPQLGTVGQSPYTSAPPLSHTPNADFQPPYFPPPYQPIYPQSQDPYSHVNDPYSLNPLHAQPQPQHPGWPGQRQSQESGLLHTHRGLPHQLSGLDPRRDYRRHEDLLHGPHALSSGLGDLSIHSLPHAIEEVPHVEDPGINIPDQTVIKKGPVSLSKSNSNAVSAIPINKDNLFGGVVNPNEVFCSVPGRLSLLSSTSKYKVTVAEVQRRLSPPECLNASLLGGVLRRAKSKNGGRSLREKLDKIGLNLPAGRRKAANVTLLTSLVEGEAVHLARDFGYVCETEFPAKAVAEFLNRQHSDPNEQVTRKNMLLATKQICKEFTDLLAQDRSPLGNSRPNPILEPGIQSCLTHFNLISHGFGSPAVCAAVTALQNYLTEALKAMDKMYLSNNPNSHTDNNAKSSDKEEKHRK
SP1, sequence (P08047 whole entry): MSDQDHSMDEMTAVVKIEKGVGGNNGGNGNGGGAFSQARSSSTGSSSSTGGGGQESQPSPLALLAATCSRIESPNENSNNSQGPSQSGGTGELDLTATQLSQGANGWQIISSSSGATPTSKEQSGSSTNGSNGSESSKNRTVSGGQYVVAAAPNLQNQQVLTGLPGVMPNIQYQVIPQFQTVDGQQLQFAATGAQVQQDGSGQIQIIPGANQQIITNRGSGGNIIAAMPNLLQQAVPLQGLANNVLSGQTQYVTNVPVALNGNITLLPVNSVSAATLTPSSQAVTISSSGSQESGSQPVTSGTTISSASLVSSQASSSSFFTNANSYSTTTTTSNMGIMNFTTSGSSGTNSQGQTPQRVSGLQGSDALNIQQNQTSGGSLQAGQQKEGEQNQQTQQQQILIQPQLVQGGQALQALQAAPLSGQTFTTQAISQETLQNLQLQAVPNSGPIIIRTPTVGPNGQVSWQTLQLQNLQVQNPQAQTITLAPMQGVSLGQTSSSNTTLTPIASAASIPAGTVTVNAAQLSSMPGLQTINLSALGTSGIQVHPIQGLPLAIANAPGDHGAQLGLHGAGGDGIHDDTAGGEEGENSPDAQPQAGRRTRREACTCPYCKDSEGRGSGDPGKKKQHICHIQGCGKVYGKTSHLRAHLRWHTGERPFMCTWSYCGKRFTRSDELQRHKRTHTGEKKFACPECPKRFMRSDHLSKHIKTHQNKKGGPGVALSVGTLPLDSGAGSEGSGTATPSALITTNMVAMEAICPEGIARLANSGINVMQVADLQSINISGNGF

B1: E-box (dsDNA)
DNA 1: GGAAGCAGACCACGTGGTCTGCTTCC
DNA 2: GGAAGCAGACCACGTGGTCTGCTTCC
For B1, the “apparent K (half saturation)” value (ZBTB7A) was 404 nM and the “apparent K (half saturation)” value (ZBTB7B) was 405 nM.

TGGGGAGGGTGGGGAGGGTGGGGAAGG (structured_DNA) [mycG4 (Pu27)]: binds (SMARCB1-WHD); no binding (PHF10-DPF).

B2: NF-Y (dsDNA)
DNA 1: ATTGACCAATCAGAGGTAGGATGAT
DNA 2: ATCATCCTACCTCTGATTGGTCAAT
B2 was tested, and the “apparent K (half saturation)” value (ZFHX3) was 56.9 nM, the “apparent K (half saturation)” value (ZNF787) was 394 nM and the “apparent K (half saturation)” value (VEZF1) was 249 nM. The “apparent K (half saturation)” value (SP1) was 185 nM, the “apparent K (half saturation)” value (GATA2) was 126 nM and the “apparent K (half saturation)” value (RREB1) was 283 nM. For the same binder, the “apparent K (half saturation)” value (DLX3) was 52.9 nM and the “apparent K (half saturation)” value (KLF16) was 200 nM.

B3: AP-1 (dsDNA)
DNA 1: AGTCGGCTAGCTGACTCAGGATGTCC
DNA 2: GGACATCCTGAGTCAGCTAGCCGACT
For B3, the “apparent K (half saturation)” value (TFAP2A) was 363 nM, the “apparent K (half saturation)” value (ELF2) was 205 nM and the “apparent K (half saturation)” value (VEZF1) was 255 nM. The “apparent K (half saturation)” value (SIX2) was 59.9 nM, the “apparent K (half saturation)” value (TGIF1) was 322 nM and the “apparent K (half saturation)” value (BBX) was 308 nM. The “apparent K (half saturation)” value (RREB1) was 317 nM.
